The values that follow are results of earlier work, collected in article PMC3815026.

The target in one data set is C1q (Homo sapiens) (UniProt P02745). As to the kind of experiment: Scatchard.
In the next data set the target is MBL (Homo sapiens) (UniProt P11226). The experiment in a line: Scatchard.
MBL (Homo sapiens), sequence (P11226 21-248): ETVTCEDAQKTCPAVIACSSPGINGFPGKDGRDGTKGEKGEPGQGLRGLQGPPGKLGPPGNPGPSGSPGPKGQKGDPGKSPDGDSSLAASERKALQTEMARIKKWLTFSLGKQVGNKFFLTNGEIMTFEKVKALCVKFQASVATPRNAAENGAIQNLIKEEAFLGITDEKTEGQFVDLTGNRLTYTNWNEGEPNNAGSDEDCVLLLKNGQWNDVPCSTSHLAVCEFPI

serglycin (myeloma cell-derived), sequence (P10124 28-158): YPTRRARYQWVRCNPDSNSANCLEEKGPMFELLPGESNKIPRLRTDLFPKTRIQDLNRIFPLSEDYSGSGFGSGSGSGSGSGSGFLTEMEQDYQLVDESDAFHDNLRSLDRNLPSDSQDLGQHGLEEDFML
C1q (Homo sapiens), sequence (P02745 23-245, chain 1 of 3): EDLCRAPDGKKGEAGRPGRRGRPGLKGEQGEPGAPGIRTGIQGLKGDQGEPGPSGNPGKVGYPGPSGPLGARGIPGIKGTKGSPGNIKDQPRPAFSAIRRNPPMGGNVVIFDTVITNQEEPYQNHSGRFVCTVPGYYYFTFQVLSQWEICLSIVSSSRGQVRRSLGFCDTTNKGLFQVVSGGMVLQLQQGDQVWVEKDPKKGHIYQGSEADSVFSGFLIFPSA
C1q (Homo sapiens), sequence (P02746 28-253, chain 2 of 3, further chain): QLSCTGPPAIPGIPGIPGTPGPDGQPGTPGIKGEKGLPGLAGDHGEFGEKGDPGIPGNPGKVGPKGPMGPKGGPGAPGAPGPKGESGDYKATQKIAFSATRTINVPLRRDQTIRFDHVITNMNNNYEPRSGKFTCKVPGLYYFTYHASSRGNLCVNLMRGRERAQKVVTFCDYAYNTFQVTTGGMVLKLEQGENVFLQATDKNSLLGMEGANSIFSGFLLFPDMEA
C1q (Homo sapiens), sequence (P02747 29-245, chain 3 of 3, further chain): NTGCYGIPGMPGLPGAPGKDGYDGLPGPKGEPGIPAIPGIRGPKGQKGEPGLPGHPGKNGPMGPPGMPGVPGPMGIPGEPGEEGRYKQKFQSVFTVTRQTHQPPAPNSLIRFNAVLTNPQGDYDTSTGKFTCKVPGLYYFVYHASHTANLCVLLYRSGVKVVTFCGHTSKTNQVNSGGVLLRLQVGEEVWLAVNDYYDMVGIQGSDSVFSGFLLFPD

On to “serglycin (myeloma cell-derived) (from UniProt P10124)”, for which the Kd (usually a measure of binding affinity in units of concentration) in the data set with C1q (Homo sapiens) is 40 nM; in the data set with MBL (Homo sapiens), 19 nM.
